Measured values from PMC8145141, “Characterization of a Dye-Decolorizing Peroxidase from Irpex lacteus Expressed in Escherichia coli: An Enzyme with Wide Substrate Specificity Able to Transform Lignosulfonates” (Journal of Fungi, 2021).

Assays:
purified protein [1] = substrate: CCn1c(=NN=c2sc3cc(S(=O)(=O)O)ccc3n2CC)sc2cc(S(=O)(=O)O)ccc21; test: purified protein; format: biochemical, Irpex lacteus; conditions: 0.4 mM H2O2, pH 3.0, 25 °C
purified protein [2] = substrate: Nc1c(N=Nc2ccc(S(=O)(=O)CCOS(=O)(=O)O)cc2)c(S(=O)(=O)O)cc2cc(S(=O)(=O)O)c(N=Nc3ccc(S(=O)(=O)CCOS(=O)(=O)O)cc3)c(O)c12; test: purified protein; format: biochemical, Irpex lacteus; conditions: 0.4 mM H2O2, pH 3.0, 25 °C

B1: IrlacDyP (recombinant Irpex lacteus DyP) (Irpex lacteus) (protein)
chain: SAGNDSLPFENIQGDILVGMKKDKEKFVFFHINNATTFKSFLKTYAPANITSVQTIIGPASGQPQAFVNLAFSHTGFGALGVADDLQDTAFTAGQFADAPSFGDDTSTWEEAFKGTNVDGVFLIGSDDVTTTNQYRDDLKAKLGDAWTVLLDLDSAARPGAEKGHEHFGYLDGISNPTIPGFGTPFPGQAVVDSGVIFAGRTNDPVTNRPSWALDGSFLVFRKLKQLVPEFHKWTLDNALQNQAGNLTVEEGALLLGSRMFGRWNSGAPIDLTPDVDDPTLGSDPQRNNDFNYIHPGEDLTTDETRCPFTAHVRKANPRDLEAQGLIPDLFHAIRAGTPYGPEVTDAESNSNTTSIDRGLAFVEYQSVISNGFRFQQLNWANNANFPFNKSEPLGLDPVIGQGTRQTFGLDPRNASDSLTIPQIIISNGGEYFFSPSITALVEHFGA
notes: mature form, signal peptide removed, 447 residues; about 50 kDa, non-glycosylated
In the case of B1, the Km (purified protein [1]) is reported as 1.5 ± 0.2 µM, the kcat (purified protein [1]) is reported as 49.8 ± 1.3 s⁻¹ and the kcat/Km (purified protein [1]) is reported as 3.3e+07 ± 4e+06 M⁻¹ s⁻¹. The Km (purified protein [2]) was 11.9 ± 2.1 µM and the kcat/Km (purified protein [2]) was 6.5e+06 ± 1e+06 M⁻¹ s⁻¹.
